According to the supplement of paper PMC6757056:
± gives the standard deviation of the averaged measurements.

B1: library; a variant is named by its letters at N, in order (parent)
chain: GCUGUCACCGGUGUAUUACCCUAGUGGUCGACCGGUCUGAUGAGUCUNNNNNNAGACGAAACAGC

Assays:
hypoxanthine [1] = variants of: B1; test: FACS-Seq fitted mean relative fluorescence mCherry/BFP without ligand (log10 relative fluorescence); ligand: hypoxanthine (xanthine aptamer); higher = higher reporter protein expression; details: HEK293T, ligand present: no
Method in brief: (§1)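 Fluorescence values are fitted normal means of bin counts along the mCherry/BFP axis. HEK293T libraries lentivirally carrying the ribozyme switch in an mCherry reporter, with an EF1α-BFP marker, were enriched, exposed to ligand or not for 48 h, and sorted into 6 bins. Genomic DNA per bin was PCR-amplified, barcoded and run on MiSeq. Means of log10(mCherry/BFP) were scaled to five spiked-in control ribozymes.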

hypoxanthine [2] = variants of: B1; test: normalized RNA/DNA level with ligand (relative to sTRSVctl = 100) (log10 (% of sTRSVctl)); ligand: hypoxanthine (xanthine aptamer); higher = less ribozyme self-cleavage, higher mRNA level; details: ligand concentration (+) RNA-Seq: 5 mM, HEK293T, reporter: mCherry (pCS4076), ligand present: yes
Procedure: (§2)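 Hammerhead (sTRSV) ribozyme switch libraries with a ligand aptamer grafted on stem I and a randomized N4-6 loop II, cloned into the 3' UTR of mCherry and transiently transfected into HEK293T cells; RNA-Seq 72 h post transfection with ligand added 1 h before transfection; RNA read count / plasmid DNA read count normalized to the non-cleaving sTRSVctl (x100), log10; sequences with >100 DNA reads. FACS-Seq: lentiviral library sorted into 6 bins after 48 h ligand, log-normal fit mean of mCherry/BFP scaled to controls. Printed sequences are partial switch sequences.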

hypoxanthine [3] = variants of: B1; test: normalized RNA/DNA level without ligand (relative to sTRSVctl = 100) (log10 (% of sTRSVctl)); ligand: hypoxanthine (xanthine aptamer); higher = less ribozyme self-cleavage, higher mRNA level; details: HEK293T, reporter: mCherry (pCS4076), ligand present: no
Procedure: as §2

hypoxanthine [4] = variants of: B1; test: FACS-Seq fitted mean relative fluorescence mCherry/BFP with ligand (log10 relative fluorescence); ligand: hypoxanthine (xanthine aptamer); ligand concentration (+) FACS-Seq: 5 mM; higher = higher reporter protein expression; details: HEK293T, ligand present: yes
Method in brief: as §1

## GCUGUCACCGGUGUAUUACCCUAGUGGUCGACCGGUCUGAUGAGUCUUAGCGAAGACGAAACAGC [UAGCGA]
Hypoxanthine [1]
  FACS-Seq fitted mean (log10): 0.324 ± 0.049
Hypoxanthine [2]
  normalized RNA/DNA level with ligand (log10): 1.89 ± 0.041
Hypoxanthine [3]
  normalized RNA/DNA level without ligand (log10): 1.65 ± 0.025
Hypoxanthine [4]
  FACS-Seq fitted mean (log10): 0.447 ± 0.054

## GCUGUCACCGGUGUAUUACCCUAGUGGUCGACCGGUCUGAUGAGUCUGAGCGCAGACGAAACAGC [GAGCGC]
Hypoxanthine [1]
  FACS-Seq fitted mean (log10): 0.507 ± 0.012
Hypoxanthine [2]
  normalized RNA/DNA level with ligand (log10): 1.89 ± 0.026
Hypoxanthine [3]
  normalized RNA/DNA level without ligand (log10): 1.55 ± 0.017
Hypoxanthine [4]
  FACS-Seq fitted mean (log10): 0.556 ± 0.09

## GCUGUCACCGGUGUAUUACCCUAGUGGUCGACCGGUCUGAUGAGUCUCAGCGGAGACGAAACAGC [CAGCGG]
Hypoxanthine [1]
  FACS-Seq fitted mean (log10): 0.2617 ± 0.00076
Hypoxanthine [2]
  normalized RNA/DNA level with ligand (log10): 1.9 ± 0.031
Hypoxanthine [3]
  normalized RNA/DNA level without ligand (log10): 1.48 ± 0.029
Hypoxanthine [4]
  FACS-Seq fitted mean (log10): 0.612 ± 0.059

## GCUGUCACCGGUGUAUUACCCUAGUGGUCGACCGGUCUGAUGAGUCUAAGCGGAGACGAAACAGC [AAGCGG]
Hypoxanthine [1]
  FACS-Seq fitted mean (log10): -0.261 ± 0.031
Hypoxanthine [2]
  normalized RNA/DNA level with ligand (log10): 1.65 ± 0.026
Hypoxanthine [3]
  normalized RNA/DNA level without ligand (log10): 1.2 ± 0.027
Hypoxanthine [4]
  FACS-Seq fitted mean (log10): 0.442 ± 0.054

## GCUGUCACCGGUGUAUUACCCUAGUGGUCGACCGGUCUGAUGAGUCUGAGCGGAGACGAAACAGC [GAGCGG]
Hypoxanthine [1]
  FACS-Seq fitted mean (log10): -0.363 ± 0.054
Hypoxanthine [2]
  normalized RNA/DNA level with ligand (log10): 1.64 ± 0.037
Hypoxanthine [3]
  normalized RNA/DNA level without ligand (log10): 1.21 ± 0.073
Hypoxanthine [4]
  FACS-Seq fitted mean (log10): 0.0659 ± 0.25

## GCUGUCACCGGUGUAUUACCCUAGUGGUCGACCGGUCUGAUGAGUCUUAGCGGAGACGAAACAGC [UAGCGG]
Hypoxanthine [1]
  FACS-Seq fitted mean (log10): 0.335 ± 0.051
Hypoxanthine [2]
  normalized RNA/DNA level with ligand (log10): 1.875 ± 0.017
Hypoxanthine [3]
  normalized RNA/DNA level without ligand (log10): 1.542 ± 0.011
Hypoxanthine [4]
  FACS-Seq fitted mean (log10): 0.534 ± 0.035

## GCUGUCACCGGUGUAUUACCCUAGUGGUCGACCGGUCUGAUGAGUCUCAGCGUAGACGAAACAGC [CAGCGU]
Hypoxanthine [1]
  FACS-Seq fitted mean (log10): -0.166 ± 0.056
Hypoxanthine [2]
  normalized RNA/DNA level with ligand (log10): 1.967 ± 0.017
Hypoxanthine [3]
  normalized RNA/DNA level without ligand (log10): 1.89 ± 0.046
Hypoxanthine [4]
  FACS-Seq fitted mean (log10): -0.185 ± 0.11

## GCUGUCACCGGUGUAUUACCCUAGUGGUCGACCGGUCUGAUGAGUCUAAGCGUAGACGAAACAGC [AAGCGU]
Hypoxanthine [1]
  FACS-Seq fitted mean (log10): 0.27 ± 0.0081
Hypoxanthine [2]
  normalized RNA/DNA level with ligand (log10): 1.89 ± 0.05
Hypoxanthine [3]
  normalized RNA/DNA level without ligand (log10): 1.62 ± 0.035
Hypoxanthine [4]
  FACS-Seq fitted mean (log10): 0.579 ± 0.013

## GCUGUCACCGGUGUAUUACCCUAGUGGUCGACCGGUCUGAUGAGUCUGAGCUAAGACGAAACAGC [GAGCUA]
Hypoxanthine [1]
  FACS-Seq fitted mean (log10): 0.221 ± 0.077
Hypoxanthine [2]
  normalized RNA/DNA level with ligand (log10): 1.925 ± 0.018
Hypoxanthine [3]
  normalized RNA/DNA level without ligand (log10): 1.722 ± 0.004
Hypoxanthine [4]
  FACS-Seq fitted mean (log10): 0.293 ± 0.039

## GCUGUCACCGGUGUAUUACCCUAGUGGUCGACCGGUCUGAUGAGUCUCAGCUCAGACGAAACAGC [CAGCUC]
Hypoxanthine [1]
  FACS-Seq fitted mean (log10): 0.219 ± 0.029
Hypoxanthine [2]
  normalized RNA/DNA level with ligand (log10): 2.03 ± 0.022
Hypoxanthine [3]
  normalized RNA/DNA level without ligand (log10): 1.972 ± 0.014
Hypoxanthine [4]
  FACS-Seq fitted mean (log10): 0.115 ± 0.03

## GCUGUCACCGGUGUAUUACCCUAGUGGUCGACCGGUCUGAUGAGUCUAAGCUGAGACGAAACAGC [AAGCUG]
Hypoxanthine [1]
  FACS-Seq fitted mean (log10): 0.17 ± 0.068
Hypoxanthine [2]
  normalized RNA/DNA level with ligand (log10): 1.72 ± 0.032
Hypoxanthine [3]
  normalized RNA/DNA level without ligand (log10): 1.23 ± 0.054
Hypoxanthine [4]
  FACS-Seq fitted mean (log10): 0.481 ± 0.046

## GCUGUCACCGGUGUAUUACCCUAGUGGUCGACCGGUCUGAUGAGUCUGAGCUGAGACGAAACAGC [GAGCUG]
Hypoxanthine [1]
  FACS-Seq fitted mean (log10): 0.345 ± 0.0035
Hypoxanthine [2]
  normalized RNA/DNA level with ligand (log10): 1.86 ± 0.03
Hypoxanthine [3]
  normalized RNA/DNA level without ligand (log10): 1.31 ± 0.028
Hypoxanthine [4]
  FACS-Seq fitted mean (log10): 0.75 ± 0.083

## GCUGUCACCGGUGUAUUACCCUAGUGGUCGACCGGUCUGAUGAGUCUCAGGAAAGACGAAACAGC [CAGGAA]
Hypoxanthine [1]
  FACS-Seq fitted mean (log10): 0.2364 ± 0.0018
Hypoxanthine [2]
  normalized RNA/DNA level with ligand (log10): 1.958 ± 0.014
Hypoxanthine [3]
  normalized RNA/DNA level without ligand (log10): 1.58 ± 0.074
Hypoxanthine [4]
  FACS-Seq fitted mean (log10): 0.529 ± 0.019

## GCUGUCACCGGUGUAUUACCCUAGUGGUCGACCGGUCUGAUGAGUCUAAGGAAAGACGAAACAGC [AAGGAA]
Hypoxanthine [1]
  FACS-Seq fitted mean (log10): 0.159 ± 0.16
Hypoxanthine [2]
  normalized RNA/DNA level with ligand (log10): 1.869 ± 0.015
Hypoxanthine [3]
  normalized RNA/DNA level without ligand (log10): 1.53 ± 0.0077
Hypoxanthine [4]
  FACS-Seq fitted mean (log10): 0.411 ± 0.07

## GCUGUCACCGGUGUAUUACCCUAGUGGUCGACCGGUCUGAUGAGUCUGAGGAAAGACGAAACAGC [GAGGAA]
Hypoxanthine [1]
  FACS-Seq fitted mean (log10): 0.318 ± 0.036
Hypoxanthine [2]
  normalized RNA/DNA level with ligand (log10): 1.88 ± 0.032
Hypoxanthine [3]
  normalized RNA/DNA level without ligand (log10): 1.54 ± 0.026
Hypoxanthine [4]
  FACS-Seq fitted mean (log10): 0.581 ± 0.073

## GCUGUCACCGGUGUAUUACCCUAGUGGUCGACCGGUCUGAUGAGUCUUAGGAAAGACGAAACAGC [UAGGAA]
Hypoxanthine [1]
  FACS-Seq fitted mean (log10): 0.348 ± 0.033
Hypoxanthine [2]
  normalized RNA/DNA level with ligand (log10): 1.88 ± 0.031
Hypoxanthine [3]
  normalized RNA/DNA level without ligand (log10): 1.64 ± 0.018
Hypoxanthine [4]
  FACS-Seq fitted mean (log10): 0.483 ± 0.056

## GCUGUCACCGGUGUAUUACCCUAGUGGUCGACCGGUCUGAUGAGUCUGAGGACAGACGAAACAGC [GAGGAC]
Hypoxanthine [1]
  FACS-Seq fitted mean (log10): 0.178 ± 0.038
Hypoxanthine [2]
  normalized RNA/DNA level with ligand (log10): 1.91 ± 0.041
Hypoxanthine [3]
  normalized RNA/DNA level without ligand (log10): 1.6478 ± 0.00029
Hypoxanthine [4]
  FACS-Seq fitted mean (log10): 0.308 ± 0.1

## GCUGUCACCGGUGUAUUACCCUAGUGGUCGACCGGUCUGAUGAGUCUAAGGAGAGACGAAACAGC [AAGGAG]
Hypoxanthine [1]
  FACS-Seq fitted mean (log10): 0.245 ± 0.003
Hypoxanthine [2]
  normalized RNA/DNA level with ligand (log10): 1.62 ± 0.068
Hypoxanthine [3]
  normalized RNA/DNA level without ligand (log10): 1.12 ± 0.047
Hypoxanthine [4]
  FACS-Seq fitted mean (log10): 0.589 ± 0.11

## GCUGUCACCGGUGUAUUACCCUAGUGGUCGACCGGUCUGAUGAGUCUGAGGAGAGACGAAACAGC [GAGGAG]
Hypoxanthine [1]
  FACS-Seq fitted mean (log10): 0.288 ± 0.028
Hypoxanthine [2]
  normalized RNA/DNA level with ligand (log10): 1.65 ± 0.042
Hypoxanthine [3]
  normalized RNA/DNA level without ligand (log10): 1.17 ± 0.068
Hypoxanthine [4]
  FACS-Seq fitted mean (log10): 0.643 ± 0.013

## GCUGUCACCGGUGUAUUACCCUAGUGGUCGACCGGUCUGAUGAGUCUCAGGAUAGACGAAACAGC [CAGGAU]
Hypoxanthine [1]
  FACS-Seq fitted mean (log10): 0.34323 ± 0.00015
Hypoxanthine [2]
  normalized RNA/DNA level with ligand (log10): 1.947 ± 0.013
Hypoxanthine [3]
  normalized RNA/DNA level without ligand (log10): 1.682 ± 0.015
Hypoxanthine [4]
  FACS-Seq fitted mean (log10): 0.512 ± 0.028

## GCUGUCACCGGUGUAUUACCCUAGUGGUCGACCGGUCUGAUGAGUCUAAGGAUAGACGAAACAGC [AAGGAU]
Hypoxanthine [1]
  FACS-Seq fitted mean (log10): 0.678 ± 0.038
Hypoxanthine [2]
  normalized RNA/DNA level with ligand (log10): 1.91 ± 0.037
Hypoxanthine [3]
  normalized RNA/DNA level without ligand (log10): 1.653 ± 0.013
Hypoxanthine [4]
  FACS-Seq fitted mean (log10): 0.732 ± 0.042
